Columns and labels:
rhLCAT = target: T1, rhLCAT (Homo sapiens, UniProt P04180); assay: LCAT activating potential of LCAT-activating peptides in mHDL substrate (DHE fluorescence / cholesterol oxidase assay); type: biochemical; conditions: specific activity of rhLCAT with peptide/POPC/DHE substrate, 50 μM DHE, relative to SEQ ID NO: 1
T1 construct: made in house; host or cells: HEK293f cells, stably transfected with pcDNA3.1/Hygro carrying the LCAT insert from Origene pCMV6-XL4/LCAT
T1 sequence (P04180 25-440): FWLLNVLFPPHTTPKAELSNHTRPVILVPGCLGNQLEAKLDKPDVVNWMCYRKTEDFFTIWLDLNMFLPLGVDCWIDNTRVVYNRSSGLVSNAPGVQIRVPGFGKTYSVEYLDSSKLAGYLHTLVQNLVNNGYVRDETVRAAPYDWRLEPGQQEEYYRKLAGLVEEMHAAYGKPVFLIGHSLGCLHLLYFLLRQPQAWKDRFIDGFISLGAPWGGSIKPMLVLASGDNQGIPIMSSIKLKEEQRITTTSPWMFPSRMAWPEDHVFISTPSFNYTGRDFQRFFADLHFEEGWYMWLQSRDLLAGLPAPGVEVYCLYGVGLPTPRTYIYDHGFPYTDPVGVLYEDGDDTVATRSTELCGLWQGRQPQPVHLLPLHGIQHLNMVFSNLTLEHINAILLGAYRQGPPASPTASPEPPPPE
Experimental: Recombinant human LCAT (rhLCAT), isolated from cells expressing human LCAT (Example 5), was diluted into phosphate buffer containing 5 mM β-mercaptoethanol and 60 μM bovine serum albumin to obtain rhLCAT concentrations that would deliver the indicated mass of rhLCAT to assay samples in a 5 μL volume. Substrate, prepared as in Example 1, was diluted to 62.5 μM DHE with phosphate buffer containing 5 mM β-mercaptoethanol and 60 μM bovine serum albumin. One hundred microliter volumes of the diluted substrate were added to individual wells of a black, polystyrene 96-well plate (Whatman 7701-2350) which had previously been loaded with 5 μL of rhLCAT. Blank and control wells were not loaded with rhLCAT. The plate was covered and incubated at 37° C. for one hour. The reaction was quenched by the addition of 25 μL phosphate buffer containing 2% Triton X-100 and 5 units/ml COx (Streptomyces sp.) to all wells except control wells, which received 2% Triton X-100 without COx. The plate was returned to the incubator for one hour, then equilibrated to 37° C. in the plate reader and scanned for DHE fluorescence. Percent fluorescence was calculated from the ratio of the average fluorescence of duplicate wells treated with COx to the average fluorescence of the control wells. The amount of fluorescence remaining after oxidation is directly proportional to the amount of DHE esterified by LCAT. The line represents the fit of the data by linear regression. (FIG. 4).
(§1) Two microliter aliquots of plasma were added to separate assay wells followed by 100 microliters of substrate (Example 2). The assay plate was incubated for 2 hours at 37° C. followed by quenching with COx (Example 2). The nmoles DHE ester formed in each sample was calculated by subtracting the average fluorescence of the blank wells from the fluorescence of each sample well to obtain net fluorescence. The average net fluorescence of sample wells at each rhLCAT level was then divided by the average net fluorescence of control wells and multiplied by the DHE per well, which was 6.25 nmoles, to yield the nmoles of DHE ester formed. The line represents the fit of the data by linear regression. The activity detected at 0 μg/ml rhLCAT (Y-intercept) is the activity of endogenous mouse LCAT in the plasma (FIG. 5).
LCAT-activating peptides, which are produced by solid-phase synthesis (GenScript USA, Inc), are dissolved in methanol at 5 mM concentration. Three hundred and ninety seven microliters of 5 mM LAP and 357 microliters of a chloroform solution containing 25 mM POPC and 2.8 mM DHE are added to a glass vial. The solvents are evaporated by directing a gentle stream of inert gas (e.g. nitrogen) into the vial. Residual solvent is removed by high vacuum for 2 hours. The dried mixture is dispersed in 2 milliliters of phosphate buffer (150 mM NaCl, 50 mM sodium phosphate, 1 mM EDTA, pH 7.4) to obtain a final DHE concentration of 0.5 mM. The vial is flushed with inert gas and capped after buffer addition. The dispersion is obtained by vortexing and brief (10 to 30 seconds) sonication in a water bath sonicator. The substrate is protected from light and stored with inert gas in the capped vial at 2-8° C.
The LCAT activating potential of LAP is determined with the protocol described in Example 2 at a DHE concentration of 50 μM and with the rhLCAT concentrations indicated. A linear regression fit of nmoles DHE ester formed, calculated as in Example 3, versus rhLCAT in the sample yields the specific activity (nmol DHE ester/μg LCAT/hour) of rhLCAT with substrate. This protocol was used to compare and characterize the LCAT activating potential of amphipathic peptides with mean hydrophobicities and mean hydrophobic moments that were sufficient to enable the peptides to form stable micelle complexes with phosphatidylcholine and DHE (Table 3).

[1] = Time course of LCAT activity in plasma from mice injected intravenously with rhLCAT; type: in vivo, transgenic mice expressing human apoA-I; conditions: intravenous, 10 mg/kg (30×), plasma collected at 1 hour post-dose
Experimental: as §1
The utility of the current invention to measure LCAT activity changes in vivo as a result of rhLCAT injection is shown in FIG. 6. Transgenic mice expressing human apoA-I (Jackson Laboratories) and maintained on chow diet were injected (intravenous) with rhLCAT in normal saline at doses of 1 mg/kg (3×), 3 mg/kg (10×) or 10 mg/kg (30×). Control animals were injected with saline alone. Plasma was prepared from blood samples collected at 0.1, 1, 5 and 24 hours following LCAT injection. […]

Substance	RELATIVE ACTIVITY (Percent activity relative to SEQ ID: 1) (rhLCAT) [%]	increase in LCAT activity in plasma [1] [fold]
11 (DWLKAFYDKVFEKFKEFF) [compound 11]	28	–
5 (PTLDLFRELLNELLQKLKK) [compound 5]	65	–
12 (EVLKNLLEKLLEKLKELF) [compound 12]	21	–
2 (PTLDLFRELLNELLEALKQKLK) [compound 2]	94	–
7 (PVLDLFKELLEELFQKLKK) [compound 7]	56	–
8 (PVLDKFLELLEELFQKLKK) [compound 8]	15	–
rhLCAT: recombinant human LCAT isolated from culture medium of HEK293f cells expressing human LCAT	–	11
3 (PSLDLFRELLNELLEALKQKLK) [compound 3]	87	–
9 (EWLKAFLEKVLEKLKELF) [compound 9]	55	–
6 (PVLDLFRELLEELLQKLKK) [compound 6]	65	–
4 (PVLDLFRELLNELLQKLKK) [compound 4]	86	–
10 (EWLKAFYEKVLEKLKELF) [compound 10]	43	–
14 (DVFQALKELFAQLLEKWKQV) [compound 14]	0	–
13 (DLWQRLLELFNELLEKLKQALK) [compound 13]	0	–
